Measurements published in patent US20220363778A1 (RESEARCH FOUNDATION FOR THE STATE UNIVERSITY OF NEW YORK, published 2022).

How the values were obtained:
[1] = biological target: T1, mouse serum albumin (MSA) (MyBioSource, MBS135633) (mouse, UniProt P07724 25-608, limits assumed); assay: SPR, mouse serum albumin immobilised on the chip, 2Rb17c-ColH-ABD injected at 7.5-75 nM, 10 min dissociation, 1:1 Langmuir fit in Scrubber
T1 construct: Immobilised on the SPR chip for kinetics
Experimental: (§1) Surface plasmon resonance (SPR) was performed using a Reichert SR7500DC SPR and SR8100 autosampler (Reichert, Depew, N.Y.). HER2-Fc (Sino Biological, Beijing, China, 10004-H02H) or mouse serum albumin (MSA) (MyBioSource, San Diego, Calif., MBS135633) was immobilized onto a carboxymethyl dextran SPR chip (Reichert, Depew, N.Y., 13206066) using 1-Ethyl-3-(3-dimethylaminopropyl)carbodiimide/N-hydroxysuccinimide linker chemistry. A mobile phase of PBS 0.05% Tween-20 at a flow rate of 25 μL/min was used for all binding evaluations. Fusion protein dilutions were injected for 90 seconds, and the chip regenerated following dissociation with a 2-minute injection of a 10 millimolar (mM) glycine buffer pH 1.5. […] The observed sensor-grams were fit to a 1:1 Langmuir binding model in the Scrubber analysis software to obtain the association rate constant (kon), dissociation rate constant (koff), and the equilibrium dissociation constant (KD).

[2] = biological target: T2, HER2-Fc (Sino Biological, 10004-H02H) (UniProt P04626 23-652); assay: SPR, HER2-Fc immobilised, 1:1 Langmuir fit
T2 construct: Bought reagent, immobilised on a carboxymethyl dextran SPR chip by EDC/NHS; not shown: Fc portion of the bought reagent

[3] = biological target: T1, mouse serum albumin (MSA) (MyBioSource, …); assay: SPR, mouse serum albumin injected at about 400 s over 2Rs15d-ColH held on a HER2-Fc chip
Excerpt: Surface plasmon resonance was used to assess HER2 and MSA binding.

[4] = biological target: T1, mouse serum albumin (MSA) (MyBioSource, …); assay: SPR, mouse serum albumin immobilised on the chip, 2Rs15d-ColH-ABD injected at 7.5-60 nM, 10 min dissociation, 1:1 Langmuir fit in Scrubber
Experimental: as §1

B1: 2Rb17c-ColH-ABD fusion protein (other)
chain: QVQLQESGGGLVQPGGSLRLSCAASGFIFSNDAMTWVRQAPGKGLEWVSSINWSGTHTNYADSVKGRFTISRDNAKRTLYLQMNSLKDEDTALYYCVTGYGVTKTPTGQGTQVTVSSGGGSGGGSGGGSVQNESKRYTVSYLKTLNYYDLVDLLVKTEIENLPDLFQYSSDAKEFYGNKTRMSFIMDEIGRRAPQYTEIDHKGIPTLVEVVRAGFYLGFHNKELNEINKRSFKERVIPSILAIQKNPNFKLGTEVQDKIVSATGLLAGNETAPPEVVNNFTPILQDCIKNIDRYALDDLKSKALFNVLAAPTYDITEYLRATKEKPENTPWYGKIDGFINELKKLALYGKINDNNSWIIDNGIYHIAPLGKLHSNNKIGIETLTEVMKVYPYLSMQHLQSADQIKRHYDSKDAEGNKIPLDKFKKEGKEKYCPKTYTFDDGKVIIKAGARVEEEKVKRLYWASKEVNSQFFRVYGIDKPLEEGNPDDILTMVIYNSPEEYKLNSVLYGYDTNNGGMYIEPEGTFFTYEREAQESTYTLEELFRHEYTHYLQGRYAVPGQWGRTKLYDNDRLTWYEEGGAELFAGSTRTSGILPRKSIVSNIHNTTRNNRYKLSDTVHSKYGASFEFYNYACMFMDYMYNKDMGILNKLNDLAKNNDVDGYDNYIRDLSSNYALNDKYQDHMQERIDNYENLTVPFVADDYLVRHAYKNPNEIYSEISEVAKLKDAKSEVKKSQYFSTFTLRGSYTGGASKGKLEDQKAMNKFIDDSLKKLDTYSWSGYKTLTAYFTNYKVDSSNRVTYDVVFHGYLPNEGDSKNSLPYGKINGTYKGTEKEKIKFSSEGSFDPDGKIVSYEWDFGDGNKSNEENPEHSYDKVGTYTVKLKVTDDKGESSVSTTTAEIKDLSENKLPVIYMHVPKSGALNQKVVFYGKGTYDPDGSIAGYQWDFGDGSDFSSEQNPSHVYTKKGEYTVTLRVMDSSGQMSEKTMKIKITDPVYPIGTEKEPNNSKETASGPIVPGIPVSGTIENTSDQDYFYFDVITPGEVKIDINKLGYGGATWVVYDENNNAVSYATDDGQNLSGKFKADKPGRYYIHLYMFNGSYMPYRINIEGGGSGGGSLEVLFQGPGGGSLAEAKVLANRELDKYGVSDFYKRLINKAKTVEGVEALKLHILAALPHHHHHH
Kd [1]: 1.6 nM | Kd [2]: 17.1 nM

B2: 2Rs15d-ColH fusion protein (2Rs15d-Clostridial Collagenase H fusion protein) (other)
chain: QVQLQESGGGSVQAGGSLKLTCAASGYIFNSCGMGWYRQSPGRERELVSRISGDGDTWHKESVKGRFTISQDNVKKTLYLQMNSLKPEDTAVYFCAVCYNLETYWGQGTQVTVSSGGGGSGGGGSGGGGSVQNESKRYTVSYLKTLNYYDLVDLLVKTEIENLPDLFQYSSDAKEFYGNKTRMSFIMDEIGRRAPQYTEIDHKGIPTLVEVVRAGFYLGFHNKELNEINKRSFKERVIPSILAIQKNPNFKLGTEVQDKIVSATGLLAGNETAPPEVVNNFTPILQDCIKNIDRYALDDLKSKALFNVLAAPTYDITEYLRATKEKPENTPWYGKIDGFINELKKLALYGKINDNNSWIIDNGIYHIAPLGKLHSNNKIGIETLTEVMKVYPYLSMQHLQSADQIKRHYDSKDAEGNKIPLDKFKKEGKEKYCPKTYTFDDGKVIIKAGARVEEEKVKRLYWASKEVNSQFFRVYGIDKPLEEGNPDDILTMVIYNSPEEYKLNSVLYGYDTNNGGMYIEPEGTFFTYEREAQESTYTLEELFRHEYTHYLQGRYAVPGQWGRTKLYDNDRLTWYEEGGAELFAGSTRTSGILPRKSIVSNIHNTTRNNRYKLSDTVHSKYGASFEFYNYACMFMDYMYNKDMGILNKLNDLAKNNDVDGYDNYIRDLSSNYALNDKYQDHMQERIDNYENLTVPFVADDYLVRHAYKNPNEIYSEISEVAKLKDAKSEVKKSQYFSTFTLRGSYTGGASKGKLEDQKAMNKFIDDSLKKLDTYSWSGYKTLTAYFTNYKVDSSNRVTYDVVFHGYLPNEGDSKNSLPYGKINGTYKGTEKEKIKFSSEGSFDPDGKIVSYEWDFGDGNKSNEENPEHSYDKVGTYTVKLKVTDDKGESSVSTTTAEIKDLSENKLPVIYMHVPKSGALNQKVVFYGKGTYDPDGSIAGYQWDFGDGSDFSSEQNPSHVYTKKGEYTVTLRVMDSSGQMSEKTMKIKITDPVYPIGTEKEPNNSKETASGPIVPGIPVSGTIENTSDQDYFYFDVITPGEVKIDINKLGYGGATWVVYDENNNAVSYATDDGQNLSGKFKADKPGRYYIHLYMFNGSYMPYRINIELEHHHHHH
notes: Fusion of a VHH (sdAb), a linker, Clostridium collagenase H and a His6 tag, expressed in E. coli SHuffle; also called targeted collagenase; anti-HER2-collagenase fusion protein
binding result [3]: no binding

B3: 2Rs15d-ColH-ABD fusion protein (other)
chain: QVQLQESGGGSVQAGGSLKLTCAASGYIFNSCGMGWYRQSPGRERELVSRISGDGDTWHKESVKGRFTISQDNVKKTLYLQMNSLKPEDTAVYFCAVCYNLETYWGQGTQVTVSSGGGSGGGSGGGSVQNESKRYTVSYLKTLNYYDLVDLLVKTEIENLPDLFQYSSDAKEFYGNKTRMSFIMDEIGRRAPQYTEIDHKGIPTLVEVVRAGFYLGFHNKELNEINKRSFKERVIPSILAIQKNPNFKLGTEVQDKIVSATGLLAGNETAPPEVVNNFTPILQDCIKNIDRYALDDLKSKALFNVLAAPTYDITEYLRATKEKPENTPWYGKIDGFINELKKLALYGKINDNNSWIIDNGIYHIAPLGKLHSNNKIGIETLTEVMKVYPYLSMQHLQSADQIKRHYDSKDAEGNKIPLDKFKKEGKEKYCPKTYTFDDGKVIIKAGARVEEEKVKRLYWASKEVNSQFFRVYGIDKPLEEGNPDDILTMVIYNSPEEYKLNSVLYGYDTNNGGMYIEPEGTFFTYEREAQESTYTLEELFRHEYTHYLQGRYAVPGQWGRTKLYDNDRLTWYEEGGAELFAGSTRTSGILPRKSIVSNIHNTTRNNRYKLSDTVHSKYGASFEFYNYACMFMDYMYNKDMGILNKLNDLAKNNDVDGYDNYIRDLSSNYALNDKYQDHMQERIDNYENLTVPFVADDYLVRHAYKNPNEIYSEISEVAKLKDAKSEVKKSQYFSTFTLRGSYTGGASKGKLEDQKAMNKFIDDSLKKLDTYSWSGYKTLTAYFTNYKVDSSNRVTYDVVFHGYLPNEGDSKNSLPYGKINGTYKGTEKEKIKFSSEGSFDPDGKIVSYEWDFGDGNKSNEENPEHSYDKVGTYTVKLKVTDDKGESSVSTTTAEIKDLSENKLPVIYMHVPKSGALNQKVVFYGKGTYDPDGSIAGYQWDFGDGSDFSSEQNPSHVYTKKGEYTVTLRVMDSSGQMSEKTMKIKITDPVYPIGTEKEPNNSKETASGPIVPGIPVSGTIENTSDQDYFYFDVITPGEVKIDINKLGYGGATWVVYDENNNAVSYATDDGQNLSGKFKADKPGRYYIHLYMFNGSYMPYRINIEGGGSGGGSLEVLFQGPGGGSLAEAKVLANRELDKYGVSDFYKRLINKAKTVEGVEALKLHILAALPHHHHHH
notes: The text says (G4S)3 linkers and a TEV site; also called 2Rs15d-ColH-ABD035
Kd [4]: 1.5 nM
